Assays:
Test in all cases: NMR
Conditions in all cases: 298 K, 150 mM NaCl, 10 mM acetic acid, 10 mM sodium phosphate, the pH 7.4 point was taken from a sample in TBS, folded, oxidised (C63-C92 disulfide), ligand-free monomer, 215-356 µM protein
His53 = His53 (UniProt position 53, VHSFSHNVGPG)
His87 = His87 (UniProt position 87, GTSEDHQHFTC)
His89 = His89 (UniProt position 89, SEDHQHFTCTI)
His49 = His49 (UniProt position 49, PGGVVHSFSHN)

Substance: Myeloid-derived growth factor (hMYDGF, C19orf10) (Homo sapiens)
- pKa (His53): 5.4
- pKa (His87): 6.0
- pKa (His89): 6.8
- pKa (His49): 6.4
